# Where two headings read alike, the source gives them in different places.
# T1: WT mDHX36 (46-982) (Mus musculus, UniProt B2RQS6 46-982)
# T1 sequence: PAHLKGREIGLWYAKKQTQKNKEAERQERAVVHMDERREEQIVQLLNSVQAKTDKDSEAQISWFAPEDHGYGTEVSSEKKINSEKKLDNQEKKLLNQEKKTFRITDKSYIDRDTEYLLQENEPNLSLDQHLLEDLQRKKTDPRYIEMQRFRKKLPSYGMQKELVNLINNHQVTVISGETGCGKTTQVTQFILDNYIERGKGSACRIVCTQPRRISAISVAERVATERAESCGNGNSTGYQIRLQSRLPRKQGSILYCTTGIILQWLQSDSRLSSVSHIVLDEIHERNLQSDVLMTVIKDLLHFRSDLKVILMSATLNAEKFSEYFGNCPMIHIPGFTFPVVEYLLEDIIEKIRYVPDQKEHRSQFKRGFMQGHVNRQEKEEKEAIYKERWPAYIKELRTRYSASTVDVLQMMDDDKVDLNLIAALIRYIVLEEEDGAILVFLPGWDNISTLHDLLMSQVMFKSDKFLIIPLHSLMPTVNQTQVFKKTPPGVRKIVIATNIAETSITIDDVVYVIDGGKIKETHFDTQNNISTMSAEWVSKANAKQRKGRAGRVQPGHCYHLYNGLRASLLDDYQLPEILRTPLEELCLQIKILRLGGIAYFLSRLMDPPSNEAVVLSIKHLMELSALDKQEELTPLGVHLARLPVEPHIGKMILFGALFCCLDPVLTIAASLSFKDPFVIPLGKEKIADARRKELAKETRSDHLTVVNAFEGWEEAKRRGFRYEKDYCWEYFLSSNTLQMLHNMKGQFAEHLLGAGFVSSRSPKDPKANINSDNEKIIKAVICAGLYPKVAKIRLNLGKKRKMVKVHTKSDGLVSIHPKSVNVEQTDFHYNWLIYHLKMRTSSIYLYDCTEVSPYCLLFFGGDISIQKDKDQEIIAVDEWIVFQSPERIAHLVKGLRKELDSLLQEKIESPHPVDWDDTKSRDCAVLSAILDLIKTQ
# T2: mDHX36 delta-OB-fold (Mus musculus, UniProt B2RQS6 46-834+895-981, internal_change)
# T2 sequence: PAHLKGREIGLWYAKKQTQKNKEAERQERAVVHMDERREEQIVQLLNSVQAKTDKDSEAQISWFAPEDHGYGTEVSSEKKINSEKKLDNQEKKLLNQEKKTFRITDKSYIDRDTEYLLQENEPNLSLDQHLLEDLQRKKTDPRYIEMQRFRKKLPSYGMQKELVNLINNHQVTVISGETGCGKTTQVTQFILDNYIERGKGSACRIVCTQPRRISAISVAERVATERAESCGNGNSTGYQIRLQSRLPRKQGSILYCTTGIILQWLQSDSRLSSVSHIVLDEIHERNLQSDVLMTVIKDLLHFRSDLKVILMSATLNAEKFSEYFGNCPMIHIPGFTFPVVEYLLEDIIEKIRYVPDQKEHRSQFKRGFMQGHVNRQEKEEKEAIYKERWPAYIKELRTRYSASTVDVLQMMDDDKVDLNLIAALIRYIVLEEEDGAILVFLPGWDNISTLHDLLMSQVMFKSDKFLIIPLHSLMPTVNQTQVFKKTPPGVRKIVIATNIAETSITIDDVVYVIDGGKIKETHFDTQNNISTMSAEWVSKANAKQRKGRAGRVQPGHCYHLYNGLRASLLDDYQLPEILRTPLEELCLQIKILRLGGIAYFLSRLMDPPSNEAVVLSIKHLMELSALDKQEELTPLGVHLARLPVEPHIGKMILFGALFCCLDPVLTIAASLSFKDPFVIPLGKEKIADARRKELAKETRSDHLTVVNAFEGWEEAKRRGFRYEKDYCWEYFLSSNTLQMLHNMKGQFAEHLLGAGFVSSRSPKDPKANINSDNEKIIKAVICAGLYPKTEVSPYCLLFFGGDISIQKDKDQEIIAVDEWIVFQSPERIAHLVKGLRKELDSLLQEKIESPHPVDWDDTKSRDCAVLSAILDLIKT
# B1: RNA duplex R16/R31 (dsRNA)
# RNA 1: AGCACCGUAAAGACGC
# RNA 2: GCGUCUUUACGGUGCUAAAAAAAAAAAAAAA
# B2: GQI (GQ1) intramolecular RNA G-quadruplex (structured_RNA)
# RNA: UUAGGGGGAGGGGGAUGGGGGAGGGGGAAAAAAAAAAAAAAA
# How the values were obtained:
# Experiment in all cases: EMSA
# [1] = molecular target: T1, WT mDHX36 (46-982)
# [2] = molecular target: T2, mDHX36 delta-OB-fold
# [3] = molecular target: T1, WT mDHX36 (46-982); remark: listed apart in the source
Binder,binding result [1],apparent K (half saturation) [2] [nM],binding result [3]
B1,binds,,
B2,,~50,binds

# From article PMC7225076
